Test results published in the DeepSol protein solubility set.

Assay: soluble on expression in E. coli; label from the status in PepcDB or PDB records
With “MGEKLLMKGNEAIAEAALRAGCRHYFGYPITPQTEIAHYLAKKMPEVGGTFIQAESEVAAINMVYGAASAGARVLTSSSSPGISLKQEGLSYLAGAELPAVVVNIVRCGPGLGGILPAQGDYFQAVKGGGHGDYKMVVLAPSSVQELYELTVEAFNIADRYRIVSMIMGDGILGQMMEAVEFKDVENIEKIDKPWATTGTQMKREHNTITSIYIQPEVLEKHNQKLQAKYRLIEERETRVESYNCENADIIVTAFGTVARIVKNVIKMAEKEGIKVGLIRPITLWPFPTKEYEKYADVPKAFLTVELNAGQMVEDVRLAVNGKKPVYFHGRMGGMIPTQKEILDKIKEILNN” the “soluble on expression in E. coli” value was “not soluble”.
In the case of “MSLIILDNHFHVDPNHGLFLEAVKQFQRAGGTHLIVVYKTAHDYGFPGLKAEDFMKAMDFHIELVEKINRETQVKAYAVVGVHPAEFDYLARNKGLEFARNEVMKALEYAQKLCLEGKAVGIGEVGRPHYEVPQQIWEVSIEIMKYAMELAKDADCAVQLHTESFNEEKFRELGEYIREVGIKPYKVVKHFSPPLVNVAKEVGVFPSIIASKKNIEEAIKQGNRFLMETDYIDDKRRPGAVLGPKTVPKRTKEFLQRGIFTEEDVYKIHVENPKKVYGIEIEGHHHHHH”, the “soluble on expression in E. coli” value is reported as “soluble”.
In the case of “AGVNDDMPLKECYRTMWLNIWNLAGSNLNAISNRVQYDSLPCTTRNKTWELERKMFAQVDRLFNQGKEEGVFKPLDNEVLSGLSFEASVALARKHALGFYQLDDDALEAAIEASWDAIIKH”, the “soluble on expression in E. coli” value is reported as “not soluble”.
For “MEKFRVIGSTQPLQGEVTISGAKNAALPILFASILAEEPVEVANVPHLRDIDTTMELLERLGAKVERNGSVHVDAGPINQYCAPYDLVKTMRASIWALGPLVARFGQGQVSLPGGCAIGARPVDLHIHGLEQLGATITLEDGYVKAHVDGRLQGAHIVMDKVSVGATITIMCAATLAEGTTVLDNAAREPEIVDTAMFLNKLGAKISGAGTDSITIEGVERLGGGKHAVVPDRIETGTFLVAAAVSRGKIVCRNTHAHLLEAVLAKLEEAGAEIECGEDWISLDMTGRELKAVTVRTAPHPGFPTDMQAQFTLLNMMAKGGGVITETIFENRFMHVPELKRMGAKAEIEGNTVICGDVDRLSGAQVMATDLRASASLVIAGCIAKGETIVDRIYHIDRGYERIEDKLSALGANIERFRD”, the “soluble on expression in E. coli” value was “not soluble”.
For “MSLRILIVDDEKLTRDGLIANINWKALSFDQIDQADDGINAIQIALKHPPNVLLTDVRMPRMDGIELVDNILKLYPDCSVIFMSGYSDKEYLKAAIKFRAIRYVEKPIDPSEIMDALKQSIQTVLQHQAQQDSEGHHHHHH”, the “soluble on expression in E. coli” value was “soluble”.
For “GSESKCPEELANYCDMLLRKTPLSKKLTSEEIEAKLKEVLKKLKYVQNKDVFMRYHKAHLTRRLILDISADSEIEENMVEWLREVGMPADYVNKLARMFQDIKVSEDLNQAFKEMHKNNKLALPADSVNIKILNAGAWSRSSEKVFVSLPTELEDLIPEVEEFYKKNHSGRKLHWHHLMSNGIITFKNEVGQYDLEVTTFQLAVLFAWNQRPREKISFENLKLATELPDAELRRTLWSLVAFPKLKRQVLLYEPQVNSPKDFTEGTLFSVNQEFSLIKNAKVQKRGKINLIGRLQLTTERMREEENEGIVQLRILRTQEAIIQIMKMRKKISNAQLQTELVEILKNMFLPQKKMIKEQIEWLIEHKYIRRDESDINTFIYMA”, the “soluble on expression in E. coli” value was “soluble”.
With “MSLTTFATEWEKQLELYPEEYRKAYRRVKRASEILLREPEPQVGLTPKEVIWTKNKTKLYRYIPKQEKTQRVPILLIYALINKPYIMDLTPGNSLVEYLVDRGFDVYMLDWGTFGLEDSHLKFDDFVFDYIAKAVKKVMRTAKSDEEGHHHHHH” the “soluble on expression in E. coli” value was “not soluble”.
For “MGSDKIHHHHHHMSIESILKNRSSTRAFLDKPVTKETLDLIFAHAQLSPSNCNVQPWQTCVVSGQTKDTLKQKFMQTLMSGASPNPDFNWLPQYQGVHRDRQFGSANALYSSIGVAREDKKARQMAMVRNWQFFDAPHAVFFTMDKYLDIMGAVDLGIYAQTLSLIMADHGISNCMQGALGQFPDPVREILNLPAERGILFGMSFGYADDSAAVNNTRTDREPIENAVAFFD”, the “soluble on expression in E. coli” value was “not soluble”.
For “AHHHHHHGSKKFRFFVSGMPGVGKTTLAKRIADEIKREGFKVGGIITQEIRSGARRSGFRVIALDTGEIGRLAYVGQGYPRLGRYVIDVESFEKVAIPAISRALREGDLIVIDEIGPMEFKSNEFLKALGLVLRSEKPLLATVHRRFVERYRPLGEYYWLTPENREAVFSEILVKIKELLRENENAGNKAQD”, the “soluble on expression in E. coli” value was “not soluble”.
With “GPLGSATITQDTPINQIFTDTALAEKMKTVLGKTNVTDTVSQTDLDQVTTLQADRLGIKSIDGVEYLNNLTQINFSNNQLTDITPLKNLTKLVDILMNNNQIADITPLANLTNLTGLTLFNNQITDIDPLKNLTNLNRLELSSNTISDISALSGLTSLQQLSFGNQVTDLKPLANLTTLERLDISSNKVSDISVLAKLTNLESLIATNNQISDITPLGILTNLDELSLNGNQLKDIGTLASLTNLTDLDLANNQISNLAPLSGLTKLTELKLGANQISNISPLAGLTALTNLELNENQLEDISPISNLKNLTYLTLYFNNISDISPVSSLTKLQRLFFYNNKVSDVSSLANLTNINWLSAGHNQISDLTPLANLTRITQLGLNDQAWTNAPVNYKANVSIPNTVKNVTGALIAPATISDGGSYTEPDITWNLPSYTNEVSYTFSQPVTIGKGTTTFSGTVTQPLKA” the “soluble on expression in E. coli” value was “soluble”.
With “MNRREVRCAFSASKAARAQLLLRGKVRLEPLPTRPRTVLGLDASYSAKDGVGVGAAVLISLETLEPVDCRVYISRVCIPYIPGLLAFRELAVMAPAAAALSAEADVVMVDGHGIAHPRRFGIASHVGVILERPSIGVAKKKLVGTLVEGPGGMYVVQDGERLAIVLGTRPREVYVSPGHRITLEEAASIARATIRPGGWMPEPTRLADVISKALKTIIGGQSLINSALASLCRVKLGPRLEELERPLRRAGLEVELEHHHHHH” the “soluble on expression in E. coli” value was “not soluble”.
In the case of “MNPDHKEIIMNHIGLFALTAAALLAGCSSNTQQDNYREASFELCNTEVNIYSVSDDGQVRIVCADGAKFALKTEKTLDIMRDINVDYCDGEGLGKFTESNKYYMFKCKSGTMISVSK”, the “soluble on expression in E. coli” value is reported as “not soluble”.
In the case of “MSDAQGNTLTEEELAMLRAGDEENDNTDTIMVIRVPNDGSSATAVSIPRDTYIHDDDYGNMKINGVYGAYKDARRAELMEQGFTNESELETRAKDAGREGLIDAVSDLTGITVDHYAEVGLLGFVLLTDAVGGVEVCLNNAVDEPLSGANFPAGRQTLGGSDALSYVRQRHDLPRGDLDRIVRQQSYMASLVNQVLSSGTLTNPAKLSALADAVTRSVVIDEGWEIMSFATQLQNLAGGNVTFATIPVTSIDGTGDYGESVVTIDVNQVHAFFQEALGEAEPAPEDGSDDQSADQAPDLSEVEVHVLNASYVEGLANGIAAQLQELGYSIAETGNAAEGLYYESQILAAEEDSAKALAISEALGGLPIVANSSLDDNTVIVVSAGDYAGPTAEANALEHHHHHH”, the “soluble on expression in E. coli” value is reported as “soluble”.
For MKVRASVKRICDKCKVIRRHGRVYVICENPKHKQRQG, the “soluble on expression in E. coli” value was “soluble”.
For “MNMKPESKEAPINIRAKASQRDLIDMAANLVAKSRTDFMLDAACREAQDILLDQRLFILDDEQYDAFLAALDAPITAERQAKINALMNRKSPWE”, the “soluble on expression in E. coli” value was “soluble”.
For “MTAEILVVGSILPSDKFFCFLMGPAPVFPNSRKPATLDANSDEQTLRPYFKTKVEQAEQTVAEKSINVRRLMAQQKELNGKVRLLKEEISHLHEQGSHVGEVCKAMDKKKVLVKNHPDGKYIVDVAASVDISTLAAGTRVALRADNYAIHEVLPSKVDPLVSLMMVEKVPDSTYEMVGGLDTQIKEIKEVIELPVKHPELFDALGIAQPKGVLLYGPPGTGKTLLARAVAHHTECTFIRVSGSELVQKFIGEGARMVRELFVMAREHAPSIIFMDEIDSIGSSRVEGSRGGDSEVQRTMLELLNQLDGFEATKNIKVIMATNRIDILDSALLRPGRIDRKIEFPAPDEKARAQILKIHSRKMNLMRGIRMDKIAEQIPGASGAEVKSVCTEAGMFALRERRIHVTQEDFEMAVGKVMQKDSEKNMSIKKLWK”, the “soluble on expression in E. coli” value was “not soluble”.
For “MGSDKIHHHHHHMKFFNREKEIHKILSIIEGEPNLIYFIYGSINSGKTALINEIINNRLDKNKYIVFYFDLREIFISKYDDFIEVLFEEYEGDKSPIEVIKAIINDLPSLYGIPIPKNTLNEIFKKKTTKNVFRYITNVLMDIKREGKQPIIIIDELQKIGDMKINGFLIYELFNYFVSLTKHKHLCHVFCLSSDSLFIERVYNEAMLEDRVDYILVDDHRGGYAPSIGILPQIESGVAFGNPALEYSNRGFASMRGEYILVDDFDKETALKFMDFLAKENNMSLTNEDKELIYNYVGGKPVLIIKVIDKLRYENLNDILDFMLKDATQKLKYFLEDVKEEDEELYKKVVDALKLFKEDYEIEDIKIPKKIREFLIKRNILFLNPIEGILKPQSFLVWNAIKKVL”, the “soluble on expression in E. coli” value was “not soluble”.
For “MGSDKIHHHHHHMVSCGGDGTLNEVVNGIVNTDLAIAVLPMGTGSDFGKTIGIRNISDFLKAIKSGRTREVDLVAAQFANQSRRYFINILEIGFGAEVMNYVNSHKYLGRGSFKFGAFYMLSKMHPFNLRLIMDGKEYEFPTIEAIFANGRYFGGGMLASPYSEIDDGLLDVHVLKPFSRIRSAMNFRTIYDGSYLNRRICA”, the “soluble on expression in E. coli” value was “not soluble”.
With “MLDLLVVAPHPDDGELGCGGTLARAKAEGLSTGILDLTRGEMGSKGTPEEREKEVAEASRILGLDFRGNLGFPDGGLADVPEQRLKLAQALRRLRPRVVFAPLEADRHPDHTAASRLAVAAVHLAGLRKAPLEGEPFRVERLFFYPGNHPFAPSFLVKISAFIDQWEAAVLAYRSQFTGEAASETVGPKGVEARKAMRRYWGNYLGVDYAEPFVSPLPVLYVPWSRA” the “soluble on expression in E. coli” value was “soluble”.
With “MSREANPFKKMPTILMPDELMAKALRRGEKVANEMRQKELPWLLKARFVEEHKVRTIASVVADNLQKVIDKTPPVRKLPKFYQEMVEVLVGIDDFKKSMGAFKWASELVRKLGNEYARKIRKARTPQQAGKLRKEFVGRVKSILEQIHPEMAFVAVAREKLKDLPTFKDLPTVVIAGYPNVGKSTLLKKLTGADVEINSYPFTTKGINVGYIGEIQMVDTPGLLDRPLYERNDIELQAILALNYLANLILFIIDASEFCGYTIEEQINLLKEIKDLFKAPIVVAINKIDLVDEERVKEIEEKLKEVGIEEILKISADKDIGLDELKERLKKIAIKEFLKDKDAENKELECLEHHHHHH” the “soluble on expression in E. coli” value was “soluble”.
With “MSKIAIIVDSSSYIPKDQLKKHHIYVIDNPIIFGETIYHEFNWPVNADFYQQMATTPIQPTTSQPAPGDFEAAFQAAKDDGYKQALVITLSSGFSGTFLNTSAIASSHSDIDIHVWDSRIACLGAGNQALLAAYLAEKGIGIDEILSKLQILRSRTGVFFVVDSISHLQRTGRLSGGQALVAGLLNIKPILNINTNKQGKIDAVAKTRKMSGAWRYIEKHFAKIADNYQRAGWPMRVSILDADNPELADAWLKRAEKRWPEIIFERGIIGPLVGVHIGGKAVGLIWAEDYKRLED” the “soluble on expression in E. coli” value was “not soluble”.
For “MAHHHHHHMESKICDPIGLDKNKFRKVEEENEENSKIVENGQMTYNDDLEMFTTIQLNQEIDIRKNPFPLHMINQKNDIPLCAQEFSKLTDPLYIKKICLEKVHDWSRCNEDDVCVNQILSGLTNQLFEVSIKEDTAIEYRITRRHVLFRIYGKDVDALYNPLSEFEVYKTMSKYRIAPLLLNTFDGGRIEEWLYGDPLSIDDLKNKSILVGIANVLGKFHTLSRKRHLPEHWDKTPCVFKMMDRWRLAVSNYKNLDKVTLDINKYIQESHKFLKFIKIYTQIENIANDIVFCHNDLQENNIMNTNKCLRLIDFEYSGYNFLSADIANFFIETTIDYSYNAYPFFIINKKNYISYESRILFVTTYLSKYLDDSTAASDQDIIDQFLEAIEVQALGLHLIWAFWSIIRGYQTKSYNEFDFFLYAKERLKMYDEQKQYLMSKNIIKDYDD”, the “soluble on expression in E. coli” value was “soluble”.
